Assay results as given in the RNAGym collection of RNA variant scans (doi:10.7554/elife.90254).

B1: OR4K15 (parent)
chain: GUUAACGGUCAUAGGCCAUGGAAACUAGGAGCACCAUUUCGCUGCCAGUGAAGAAAUGAACAAAGAAAAUCUGGGCCAGGCAGGCAUCAAAAGAAAUAGUCUUGCGCUCAACCAGAAAGUCUGUAAUCAUUUUAAGGGUA

Variants of: B1
Assay: self-cleavage, relative activity (ratio to wild type); higher = more cleavage; in vitro, sequencing; the parent is a self-cleaving ribozyme

Going from U87C U122A to A89U G119A, the self-cleavage rises from 1.32 to 2.37.

Compared with A90C U100A, A90G A98U is higher in self-cleavage: 0.92 for the first, 1.62 for the second.

First: A90G A98G
Second: A90G A92G
The self-cleavage of the first is lower: 0.22 for the first, 1.01 for the second.

First: A90G A116G
Second: A89G A98G
The self-cleavage of the first is higher: 0.8 for the first, 0.67 for the second.

First: A89C A116G
Second: A89C A116U
The self-cleavage of the first is lower: 0.19 for the first, 0.32 for the second.

First: U87G U132C
Second: A90U A111G
The self-cleavage of the first is higher: 0.88 for the first, 0.02 for the second.

Compared with A90U U130C, A89G A116C is lower in self-cleavage: 1.3 for the first, 0.22 for the second.

First: U87G U100A
Second: A89G U102C
The self-cleavage of the first is lower: 0.06 for the first, 1.68 for the second.

A90G C105U and C88U A111G are the same in self-cleavage: 0.04 for the first, 0.04 for the second.

Compared with C88A, C88U is higher in self-cleavage: 1.78 for the first, 1.83 for the second.

Compared with A89G C113G, A90G C107A is higher in self-cleavage: 0.01 for the first, 0.02 for the second.

First: U87C U132A
Second: A89C U122C
The self-cleavage of the first is lower: 0.81 for the first, 1.75 for the second.

Compared with A90U A114U, A90U A135G is higher in self-cleavage: 0.04 for the first, 2.04 for the second.

Going from U87C U102C to A90G C101U, the self-cleavage falls from 2.08 to 0.21.

Going from C88U A140G to A89G A90U, the self-cleavage falls from 2.02 to 1.39.

First: A89U U132A
Second: A89U U132C
The self-cleavage of the first is lower: 1.35 for the first, 1.64 for the second.

First: U87C G115U
Second: U87C U133A
The self-cleavage of the first is lower: 0.29 for the first, 0.9 for the second.

Going from U87C U133C to A90G A111G, the self-cleavage falls from 1.4 to 0.02.

Compared with A89G A114U, A89G A114G is higher in self-cleavage: 0.12 for the first, 0.36 for the second.

Going from A89U A92G to A89U A98G, the self-cleavage falls from 2.32 to 0.66.

U87C C112U and U87C C112G are the same in self-cleavage: 0.02 for the first, 0.02 for the second.

Going from A89U U124C to A90G U139C, the self-cleavage falls from 1.38 to 1.2.

Going from A89G U122A to U87C U127A, the self-cleavage rises from 1 to 2.12.

Going from U87C U127C to A90G A95G, the self-cleavage rises from 0.64 to 2.02.

Compared with U87C U130C, A89G C105U is lower in self-cleavage: 0.55 for the first, 0.07 for the second.

First: A89U U122A
Second: A89G U139G
The self-cleavage of the first is lower: 0.6 for the first, 1.4 for the second.

Compared with A90G A125U, A89G U127C is lower in self-cleavage: 1.7 for the first, 1.03 for the second.

Going from A90U U108C to A90U A134G, the self-cleavage rises from 0.01 to 1.26.

Compared with A90U A134U, C88G A129G is higher in self-cleavage: 1.96 for the first, 2.37 for the second.

First: A89U U120C
Second: A89G A129G
The self-cleavage of the first is lower: 0.5 for the first, 1.06 for the second.

Going from A90U U127C to A89U A111G, the self-cleavage falls from 1.37 to 0.03.

Compared with A89U A111U, A89C A117U is higher in self-cleavage: 0.13 for the first, 0.98 for the second.

A89U C109G and A89G G106A are the same in self-cleavage: 0.01 for the first, 0.01 for the second.

First: A89U G104C
Second: U87C A135G
The self-cleavage of the first is lower: 0.01 for the first, 1.81 for the second.

Going from A90G U124A to A89G A91G, the self-cleavage rises from 0.47 to 1.49.

Going from A90U A92G to U87G A91G, the self-cleavage falls from 1.38 to 0.11.

Compared with U87G U127C, A90C A118G is higher in self-cleavage: 0.22 for the first, 1.04 for the second.

Going from A89G A126G to A89G G123A, the self-cleavage rises from 0.6 to 1.52.

First: U87C A140G
Second: A89G A118U
The self-cleavage of the first is higher: 1.49 for the first, 0.54 for the second.

Going from A89G A118G to A89G U131C, the self-cleavage falls from 1.18 to 0.59.

Going from C88U U139A to A90G U103A, the self-cleavage falls from 1.67 to 0.26.

Compared with A89G A92G, A89G A92U is higher in self-cleavage: 1.02 for the first, 1.57 for the second.

First: C88U U127C
Second: U87C C128U
The self-cleavage of the first is higher: 2.09 for the first, 0.76 for the second.

Going from A89U U102C to U87C U139C, the self-cleavage falls from 1.9 to 0.35.

First: A89G A111G
Second: A89U U131C
The self-cleavage of the first is lower: 0.02 for the first, 1.47 for the second.

Going from A90U U124G to A90U A91G, the self-cleavage rises from 1.66 to 1.95.

Compared with A89U A118U, A89U U108A is lower in self-cleavage: 0.73 for the first, 0.02 for the second.

Going from A89G U124A to A89G A135U, the self-cleavage falls from 1.38 to 1.15.

First: A89G A135G
Second: A89G U103G
The self-cleavage of the first is higher: 1.68 for the first, 0.02 for the second.

Going from A89G G115U to A90G G119A, the self-cleavage rises from 0.11 to 0.36.

First: U87G A95G
Second: A89U A96G
The self-cleavage of the first is lower: 1.11 for the first, 1.73 for the second.

Compared with A89G C107U, A89U A126U is higher in self-cleavage: 0 for the first, 0.65 for the second.

Compared with A90G A114U, U87C U97C is higher in self-cleavage: 0.02 for the first, 1.63 for the second.

Going from A90U U100C to A90U U100A, the self-cleavage falls from 2.02 to 0.15.

Compared with A89G U100C, U87C C113A is lower in self-cleavage: 2 for the first, 0.01 for the second.

First: U87C C113U
Second: U87C U108C
The self-cleavage of the first is higher: 0.12 for the first, 0.01 for the second.

Compared with U87C U108A, A89G G119C is higher in self-cleavage: 0.01 for the first, 1.62 for the second.

Compared with U87C C88A, A89C U132A is higher in self-cleavage: 0.75 for the first, 1.97 for the second.

Compared with A89C A91G, A90G U127A is higher in self-cleavage: 0.72 for the first, 2.66 for the second.

Compared with A90G G137C, A90G U132C is lower in self-cleavage: 1.19 for the first, 1.12 for the second.

First: A90G U132A
Second: A89G A125G
The self-cleavage of the first is higher: 0.56 for the first, 0.16 for the second.

Compared with A89G A140U, A89G A140C is lower in self-cleavage: 1.23 for the first, 0.99 for the second.

First: A89G A140G
Second: A90G U122A
The self-cleavage of the first is higher: 1.55 for the first, 0.84 for the second.

Compared with A89G U130C, A90G G104A is lower in self-cleavage: 1.79 for the first, 0.02 for the second.

Compared with A89C A90G, A89U A91U is higher in self-cleavage: 0.73 for the first, 1.24 for the second.

Compared with A89G A95U, A89C U120C is lower in self-cleavage: 1.95 for the first, 0.75 for the second.

Compared with A90G A135C, A90G A135U is lower in self-cleavage: 0.91 for the first, 0.39 for the second.

Going from A90G C112G to U87G A126G, the self-cleavage rises from 0 to 0.48.

First: A89C A118G
Second: A90G A126G
The self-cleavage of the first is lower: 0.51 for the first, 0.95 for the second.

Compared with C88U U120C, A90U A118G is lower in self-cleavage: 1.46 for the first, 1.24 for the second.

First: C88U U108C
Second: A89G A134G
The self-cleavage of the first is lower: 0.01 for the first, 1.64 for the second.

First: A89C C107U
Second: A89G C101U
The self-cleavage of the first is lower: 0.04 for the first, 0.29 for the second.

Going from U87C C105U to U87C C105A, the self-cleavage falls from 0.13 to 0.02.

Compared with A89C G106C, A89G A110U is higher in self-cleavage: 0 for the first, 0.77 for the second.

Going from A90U U103C to A89G A117G, the self-cleavage rises from 1.27 to 1.73.

Compared with A89U G115U, A89C U108C is lower in self-cleavage: 0.56 for the first, 0.01 for the second.

Compared with A90G U120C, A90U A129G is higher in self-cleavage: 0.58 for the first, 1.51 for the second.

Going from A90G G106C to A90G U108C, the self-cleavage rises from 0 to 0.02.

First: A90G U108A
Second: A90G A110U
The self-cleavage of the first is lower: 0.02 for the first, 0.94 for the second.

Going from A89U C121U to A90G A129U, the self-cleavage falls from 2.24 to 0.35.

Compared with A90G A129G, A89U A125G is higher in self-cleavage: 0.22 for the first, 0.77 for the second.

Going from A89U A90G to U87G A111G, the self-cleavage falls from 1.48 to 0.02.

Compared with A90G A118U, A90G A118G is higher in self-cleavage: 0.45 for the first, 0.47 for the second.

For A90G A118C, the self-cleavage was 0.82.
